According to patent US20220177587A1, “METHODS AND USES OF VARIANT CD80 FUSION PROTEINS AND RELATED CONSTRUCTS” (Alpine Immune Sciences, Inc., priority 2018, published 2022):
Numbering of substitutions follows the chain as printed. In names and notes the source's numbering stands.

B1: L70Q/A91G/N144D (protein)
chain: VIHVTKEVKEVATLSCGHNVSVEELAQTRIYWQKEKKMVLTMMSGDMNIWPEYKNRTIFDITNNLSIVIQALRPSDEGTYECVVLKYEKDGFKREHLAEVTLSVKADFPTPSISDFEIPTSNIRRIICSTSGGFPEPHLSWLEDGEELNAINTTVSQDPETELYAVSSKLDFNMTTNHSFMCLIKYGHLRVNQTFNWNTTKQEHFPDN
modifications: CD80 v122 ECD
B2: K54M/L70Q/A91G/Y164H (protein)
chain: B1 chain with K54M, D144N, Y164H, H188D
modifications: CD80 v138 ECD
B3: Y31H/T41G/M43L/L70Q/A91G/I118V/T120S//I126V/T130A (protein)
chain: B1 chain with Y31H, T41G, M43L, I118V, T120S, I126V, T130A, D144N
B4: N63S/L70Q/A91G/S114T/I118V/T120S/T130A (protein)
chain: B1 chain with N63S, S114T, I118V, T120S, T130A, D144N, H188D
modifications: CD80 v133 ECD
B5: A91G/T120S/I118V/T130A (protein)
chain: B1 chain with Q70L, I118V, T120S, T130A, D144N
B6: K37E/F595/L70Q/A91G/T120S/T130A (protein)
chain: B1 chain with K37E, F59S, I118V, T120S, T130A, D144N, K185E
B7: L65H/D90G/T110A/F116L (protein)
chain: B1 chain with L65H, Q70L, D90G, G91A, T110A, F116L, D144N
modifications: CD80 v141 ECD
B8: L70Q/A91G/T130A (protein)
chain: B1 chain with T130A, D144N
modifications: CD80 v2 ECD
B9: V68A/T110A (protein)
chain: B1 chain with V68A, Q70L, G91A, T110A, D144N
modifications: CD80 v26 ECD
B10: E52G/L70Q/A91G/D107N/I118V/T1205/T130A/K169E (protein)
chain: B1 chain with E52G, D107N, I118V, T120S, T130A, D144N, K169E
B11: R29H/E52G/L70R/E88G/A91G/T130A (protein)
chain: B1 chain with R29H, E52G, Q70R, E88G, T130A, D144N
modifications: CD80 v24 ECD
B12: A91G (protein)
chain: B1 chain with Q70L, D144N
B13: L70Q/Y87N/A91G/T130A (protein)
chain: B1 chain with Y87N, T130A, D144N
modifications: CD80 v12 ECD
B14: S44P/L70Q/A91G/T130A (protein)
chain: B1 chain with S44P, T130A, D144N
B15: L70Q/A91G/E117G/I118V/T120S/T130A (protein)
chain: B1 chain with E117G, I118V, T120S, T130A, D144N
modifications: CD80 v128 ECD
B16: K36E/I67T/L70Q/A91G/I118V/T1205/T130A/N152T (protein)
chain: B1 chain with K36E, I67T, I118V, T120S, T130A, D144N, N152T
B17: A91G/S103P (protein)
chain: B1 chain with Q70L, S103P, D144N
B18: L70R/A91G/I118V/T120S/T130A/T199S (protein)
chain: B1 chain with Q70R, I118V, T120S, T130A, D144N, T199S
modifications: CD80 v130 ECD
B19: K89E/T130A (protein)
chain: B1 chain with Q70L, K89E, G91A, T130A, D144N
modifications: CD80 v19 ECD
B20: V4M/L70Q/A91G/I118V/T120S/T130A/K169E (protein)
chain: B1 chain with V4M, I118V, T120S, T130A, D144N, K169E
modifications: CD80 v124 ECD
B21: D60V/A91G/I118V/T120S/T130A/K169E (protein)
chain: B1 chain with D60V, Q70L, I118V, T120S, T130A, D144N, K169E
modifications: CD80 v137 ECD
B22: V20L/L70Q/A91S/I118V/T120S/T130A (protein)
chain: B1 chain with V20L, I118V, T120S, T130A, D144N
modifications: CD80 v127 ECD
B23: L70Q/A91G/I118V/T120S/T130A/K169E (protein)
chain: B1 chain with I118V, T120S, T130A, D144N, K169E
modifications: CD80 v125 ECD
B24: L70Q/A91G/I118A/T120S/T130A/K169E (protein)
chain: B1 chain with I118A, T120S, T130A, D144N, K169E
modifications: CD80 v123 ECD
B25: M38T/L70Q/E77G/A91G/I118V/T120S/T130A/N152T (protein)
chain: B1 chain with M38T, E77G, I118V, T120S, T130A, D144N, N152T
B26: L70Q/E81A/A91G/I118V/T120S/I127T/T130A (protein)
chain: B1 chain with E81A, I118V, T120S, I127T, T130A, D144N
modifications: CD80 v131 ECD
B27: T28S/L70Q/A91G/E95K/I118V/T120S/I126V/T130A/K169E (protein, UniProt P33681 35-288, looked up, variant T28S L70Q A91G E95K I118V T120S I126V T130A K169E)
T-lymphocyte activation …: VIHVTKEVKEVATLSCGHNVSVEELAQSRIYWQKEKKMVLTMMSGDMNIWPEYKNRTIFDITNNLSIVIQALRPSDEGTYECVVLKYEKDGFKRKHLAEVTLSVKADFPTPSISDFEVPSSNIRRVICSASGGFPEPHLSWLENGEELNAINTTVSQDPETELYAVSSELDFNMTTNHSFMCLIKYGHLRVNQTFNWNTTKQEHFPDNLLPSWAITLISVNGIFVICCLTYCFAPRCRERRRNERLRRESVRPV

tested on: allogeneic CD4+ T cells; assay: Mixed Lymphocyte Reaction (MLR), IFN-gamma; format: cell-based, human; conditions: Table E32; variant ECD-Fc in MLR assay; culture supernatant
Protocol: Soluble rCD80.Fc bioactivity was tested in a human Mixed Lymphocyte Reaction (MLR). Human primary dendritic cells (DC) were generated by culturing monocytes isolated from PBMC (BenTech Bio, USA) in vitro for 7 days with 500U/ml rIL-4 (R&D Systems, USA) and 250 U/ml rGM-CSF (R&D Systems, USA) in Ex-Vivo 15 media (Lonza, Switzerland). 10,000 matured DC and 100,000 purified allogeneic CD4+ T cells (BenTech Bio, USA) were co-cultured with variant CD80 Fc fusion proteins and controls in 96 well round bottom plates in 200 μl final volume of Ex-Vivo 15 media. On day 5, IFN-gamma secretion in culture supernatants was analyzed using the Human IFN-gamma Duoset ELISA kit (R&D Systems, USA). Optical density was measured by VMax ELISA Microplate Reader (Molecular Devices, USA) and quantitated against titrated rIFN-gamma standard included in the IFN-gamma Duo-set kit (R&D Systems, USA).

Molecule | MLR IFN-gamma levels
B1 | 716 pg/mL
B2 | 685 pg/mL
B3 | 782 pg/mL
B4 | 705 pg/mL
B5 | 714 pg/mL
B6 | 863 pg/mL
B7 | 758 pg/mL
B8 | 752 pg/mL
B9 | 861 pg/mL
B10 | 874 pg/mL
B11 | 740 pg/mL
B12 | 877 pg/mL
B13 | 769 pg/mL
B14 | 854 pg/mL
B15 | 736 pg/mL
B16 | 852 pg/mL
B17 | 670 pg/mL
B18 | 702 pg/mL
B19 | 761 pg/mL
B20 | 991 pg/mL
B21 | 744 pg/mL
B22 | 710 pg/mL
B23 | 741 pg/mL
B24 | 741 pg/mL
B25 | 796 pg/mL
B26 | 772 pg/mL
B27 | 834 pg/mL

tested on: human pan T cells; assay: Anti-CD3 coimmobilization assay, IFN-gamma; format: cell-based; conditions: Table E32; variant ECD-Fc coimmobilized with anti-CD3; culture supernatant
Procedure, shortened: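 Plates coated overnight with 1 nM or 4 nM OKT3 anti-CD3 plus 1–80 nM rCD80.Fc variants, then washed. Purified human pan T cells or BC3 T cell clone (100,000/well) cultured 3 days in Ex-Vivo 15; supernatant IFN-gamma measured by ELISA.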

Molecule | Coimmobilization with anti CD3 IFN-gamma
B1 | 93 pg/mL
B2 | 152 pg/mL
B3 | 288 pg/mL
B4 | 116 pg/mL
B5 | 276 pg/mL
B6 | 109 pg/mL
B7 | 129 pg/mL
B8 | 99 pg/mL
B9 | 163 pg/mL
B10 | 94 pg/mL
B11 | 200 pg/mL
B12 | 220 pg/mL
B13 | 136 pg/mL
B14 | 142 pg/mL
B15 | 98 pg/mL
B16 | 53 pg/mL
B17 | 124 pg/mL
B18 | 105 pg/mL
B19 | 204 pg/mL
B20 | 139 pg/mL
B21 | 120 pg/mL
B22 | 195 pg/mL
B23 | 104 pg/mL
B24 | 86 pg/mL
B25 | 119 pg/mL
B26 | 98 pg/mL
B27 | 120 pg/mL
